Data reported in patent US20250101074A1 (Affibody, published 2025).

Experiments:
Assay in all cases: SPR (Biacore), PEP07843 immobilized, analyte protein injected
[1] = target: T1, hIL-17D (human, UniProt Q8TAD2 18-202, limits assumed)
T1 sequence (looked up): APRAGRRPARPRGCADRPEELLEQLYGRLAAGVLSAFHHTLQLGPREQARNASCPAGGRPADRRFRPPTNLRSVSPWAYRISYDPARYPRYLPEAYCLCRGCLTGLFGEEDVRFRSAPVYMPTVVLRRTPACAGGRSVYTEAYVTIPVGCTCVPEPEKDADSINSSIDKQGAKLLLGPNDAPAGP
Method: (§1) In the binding experiment, HBS-EP was used as running buffer and the flow rate was 30 μl/min. […] The analytes, i.e. the panels of 24 or 12 different proteins, were each diluted in HBS-EP or HBS-EP supplemented with 500 mM NaCl to final concentrations of from 0.4 to 250 nM and injected for 5 min. […] The results were analyzed using the BiaEvaluation software.
(§2) The Z-ABD-Z polypeptides were injected over surfaces containing HSA followed by injection of the analyte proteins.

[2] = target: hIL-1beta (human, UniProt P01584 117-269)
Method: as §1, §2

[3] = target: T2, IL-17RA (UniProt Q96F46 33-320)
T2 sequence (looked up): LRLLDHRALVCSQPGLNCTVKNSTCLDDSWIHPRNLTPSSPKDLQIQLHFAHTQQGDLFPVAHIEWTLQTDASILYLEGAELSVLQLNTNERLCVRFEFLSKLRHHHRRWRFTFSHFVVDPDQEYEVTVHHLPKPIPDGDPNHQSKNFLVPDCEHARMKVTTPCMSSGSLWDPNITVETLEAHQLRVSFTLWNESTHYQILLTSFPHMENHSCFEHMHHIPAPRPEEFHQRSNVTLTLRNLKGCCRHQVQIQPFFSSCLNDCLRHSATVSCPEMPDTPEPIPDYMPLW
Method: as §1, §2

[4] = target: T3, IL-1R1 (UniProt P14778 18-332, limits assumed)
T3 sequence (looked up): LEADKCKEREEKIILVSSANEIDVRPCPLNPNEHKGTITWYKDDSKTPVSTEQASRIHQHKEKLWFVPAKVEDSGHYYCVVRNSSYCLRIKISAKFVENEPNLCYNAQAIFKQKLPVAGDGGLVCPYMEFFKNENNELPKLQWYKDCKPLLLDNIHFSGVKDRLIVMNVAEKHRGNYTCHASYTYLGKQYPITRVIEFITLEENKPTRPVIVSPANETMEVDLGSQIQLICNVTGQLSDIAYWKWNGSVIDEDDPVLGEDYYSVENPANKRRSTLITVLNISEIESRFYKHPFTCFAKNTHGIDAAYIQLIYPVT
Method: as §1, §2

[5] = target: T4, Alpha-2-HS-glycoprotein (AHSG Human HEK) (human, UniProt P02765 19-367, limits assumed)
T4 sequence (looked up): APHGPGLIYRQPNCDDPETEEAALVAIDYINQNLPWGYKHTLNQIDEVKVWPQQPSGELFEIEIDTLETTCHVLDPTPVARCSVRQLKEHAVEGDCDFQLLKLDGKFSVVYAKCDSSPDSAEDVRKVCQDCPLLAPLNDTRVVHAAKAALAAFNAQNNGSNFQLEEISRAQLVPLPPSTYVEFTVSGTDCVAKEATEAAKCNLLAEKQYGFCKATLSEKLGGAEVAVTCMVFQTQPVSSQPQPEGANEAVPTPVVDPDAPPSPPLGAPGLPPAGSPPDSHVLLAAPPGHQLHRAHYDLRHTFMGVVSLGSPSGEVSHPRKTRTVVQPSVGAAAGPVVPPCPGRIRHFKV
Method: as §1, §2

[6] = target: Alpha-1-antitrypsin (SERPINA1 Human) (human, UniProt P01009 25-418)
Method: as §1, §2

[7] = target: T5, Human Hemopexin/HPX Protein (human, UniProt P02790 24-462)
T5 sequence (looked up): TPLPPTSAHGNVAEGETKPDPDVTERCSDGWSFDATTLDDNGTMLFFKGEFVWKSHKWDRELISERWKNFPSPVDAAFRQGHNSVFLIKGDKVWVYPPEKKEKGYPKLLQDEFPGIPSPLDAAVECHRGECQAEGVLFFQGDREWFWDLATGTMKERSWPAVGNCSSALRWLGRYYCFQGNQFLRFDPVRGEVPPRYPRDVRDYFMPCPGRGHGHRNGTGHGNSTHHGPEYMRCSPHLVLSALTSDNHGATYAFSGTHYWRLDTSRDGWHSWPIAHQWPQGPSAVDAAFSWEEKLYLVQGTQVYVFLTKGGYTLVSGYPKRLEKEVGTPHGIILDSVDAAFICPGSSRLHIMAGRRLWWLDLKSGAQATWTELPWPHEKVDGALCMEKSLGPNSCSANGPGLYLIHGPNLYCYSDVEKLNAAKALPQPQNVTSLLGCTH
Method: as §1, §2

[8] = target: Beta-2-microglobulin/B2M (UniProt P61769 21-119)
Method: as §1, §2

[9] = target: Transthyretin/TTR/Prealbumin/PALB Protein (UniProt P02766 21-147)
Method: as §1, §2

Measured: binding result

Sequence of Alpha-1-antitrypsin (SERPINA1 Human) (P01009 25-418 limits assumed): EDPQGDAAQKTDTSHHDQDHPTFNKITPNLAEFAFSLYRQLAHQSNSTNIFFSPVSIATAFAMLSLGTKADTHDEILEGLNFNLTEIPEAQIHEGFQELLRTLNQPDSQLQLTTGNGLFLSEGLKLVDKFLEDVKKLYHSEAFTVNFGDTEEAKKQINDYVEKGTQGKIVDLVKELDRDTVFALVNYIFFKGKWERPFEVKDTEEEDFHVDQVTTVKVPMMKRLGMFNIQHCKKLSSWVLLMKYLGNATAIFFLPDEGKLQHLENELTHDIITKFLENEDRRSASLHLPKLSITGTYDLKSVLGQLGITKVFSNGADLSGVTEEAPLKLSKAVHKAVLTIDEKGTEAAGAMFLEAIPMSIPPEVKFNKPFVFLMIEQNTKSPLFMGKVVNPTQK
Sequence of Beta-2-microglobulin/B2M (P61769 21-119 limits assumed): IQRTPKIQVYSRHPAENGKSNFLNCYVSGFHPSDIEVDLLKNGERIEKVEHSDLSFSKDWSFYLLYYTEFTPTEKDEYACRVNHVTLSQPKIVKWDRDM

GSSLAEAKEAANAELDSYGVSDFYKRLIDKAKTVEGVEALKDAILAALP (designed binder) [ABD variant PEP07843]
no binding (tested: 50, 250 nM): [1] | [2] | [3] | [4] | [5] | [6] | [7] | [8] | [9]
